Patent US10688197B2, “Non-alcoholic fatty liver regulator 14-3-3 protein” (Korea University Research and Business Foundation, priority 2015, dated 2020)

How the values were obtained:
[1] = molecular target: T1, binding between PPARγ2 and 14-3-3β (Homo sapiens, UniProt P37231); experiment: GST-pull down assay, binding between PPARγ2 and 14-3-3β (HEK-293T)
T1 construct: expressed in transfected cells; host or cells: HEK-293T
T1 sequence (P37231 1-505): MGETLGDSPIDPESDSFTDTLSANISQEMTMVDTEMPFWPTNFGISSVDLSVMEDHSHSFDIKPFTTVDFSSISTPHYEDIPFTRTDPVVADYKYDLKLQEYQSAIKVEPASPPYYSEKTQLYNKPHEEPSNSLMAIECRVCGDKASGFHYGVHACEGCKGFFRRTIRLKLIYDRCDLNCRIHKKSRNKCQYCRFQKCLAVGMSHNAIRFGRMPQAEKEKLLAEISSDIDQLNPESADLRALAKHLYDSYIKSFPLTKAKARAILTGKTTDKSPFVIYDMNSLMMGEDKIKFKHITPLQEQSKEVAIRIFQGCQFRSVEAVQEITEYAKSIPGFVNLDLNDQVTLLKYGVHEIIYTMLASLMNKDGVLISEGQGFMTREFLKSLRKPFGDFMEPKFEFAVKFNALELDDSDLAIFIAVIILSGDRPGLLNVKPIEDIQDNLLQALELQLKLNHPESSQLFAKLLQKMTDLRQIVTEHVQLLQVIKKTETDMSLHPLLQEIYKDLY
T1 sequence (P31946 1-246 partner): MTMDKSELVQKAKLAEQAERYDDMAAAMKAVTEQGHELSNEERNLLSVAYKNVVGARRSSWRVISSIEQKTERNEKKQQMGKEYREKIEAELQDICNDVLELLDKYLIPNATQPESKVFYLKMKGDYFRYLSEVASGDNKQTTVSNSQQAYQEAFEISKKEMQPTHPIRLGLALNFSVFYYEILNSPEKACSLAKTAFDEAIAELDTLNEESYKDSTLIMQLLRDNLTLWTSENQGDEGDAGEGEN
Procedure: After transfection, […], washed with ice-cold PBS, and lysed using 500 μl/well of a lysis buffer (150 mM NaCl, 1 mM EDTA, 1% Nonidet P-40, 5% glycerol, 25 mM tris-HCl, pH 7.5, protease inhibitor added), and the lysed cells were centrifuged at 10,000×g and 4° C. for 10 minutes to extract proteins. Thereafter, 1,000 μg of the proteins was reacted with 20 μl of glutathione Sepharose 4B beads (GE Healthcare, Buckinghamshire, UK) for 6 hours, and then washing of the beads with 1 ml of ice-cold PBS was repeated 5 times, and the beads were boiled at 100° C. for 10 minutes, followed by 10% SDS-PAGE gel separation and western blotting. A ratio of GST antibodies (Santa Cruz) to Myc antibodies (self-production) was 1:3000. The detection of each protein was performed using West Pico ECL (Thermo scientific, Rockford, Ill.) and identified in a darkroom.
After transfection, […], washed with ice-cold PBS, and lysed using 500 μl/well of a lysis buffer (150 mM NaCl, 1 mM EDTA, 1% Nonidet P-40, 5% glycerol, 25 mM tris-HCl, pH 7.5, protease inhibitor added), and the lysed cells were centrifuged at 10,000×g and 4° C. for 10 minutes to extract proteins. […]

PPARγ2 = molecular target: T2, PPARγ2 (Homo sapiens, UniProt P37231); experiment: aP2 promoter luciferase reporter, transcriptional activity of PPARγ2 in HEK-293T cells; format: cell-based; details: for transcriptional activity of PPARγ2: overexpressed according to concentration, concentration-dependent manner, FIG. 1B/1C; for transcriptional activity of PPARγ2 (activity of the aP2 promoter): overexpression of 14-3-3 isoform proteins (0.5 μg), HEK-293T, 10 μM pioglitazone 24 hours, FIG. 1A
T2 construct: endogenous in cells; host or cells: HEK-293T
T2 sequence (P37231 1-505): T1 sequence (P37231 1-505)
Procedure: The transcriptional activity of PPARγ2 plays a vital role in expression of liver diseases-associated proteins. Thus, the transcriptional activity of PPARγ2 was measured using an aP2 promoter regulated by PPARγ2, and the role of 7 types of 14-3-3 proteins was investigated.
For this, HEK-293T cells were seeded in a 12-well plate at a density of 1×10^5 cells per each well, and then transfected with an aP2 promoter construct (0.5 μg) and 14-3-3 isoform proteins (α, β, γ, δ, ε, ζ, η, θ) (0.5 μg) or si-14-3-3β and si-14-3-3γ siRNA (5 nM and 10 nM, Santa Cruz) using an E-fection plus reagent (Lugen). A ratio of DNA to the E-fection plus reagent was 1:2, and this method was performed according to a manufacturer's manual. After transfection, the corresponding cells were treated with 10 μM of pioglitazone (Pio, Santa Cruz) for 24 hours, washed with ice-cold PBS, and lysed using 80 μl/well of a reporter lysis buffer (Promega, Madison, Wis.), and the lysed cells were centrifuged at 10,000×g and 4° C. for 10 minutes to collect a supernatant, and luciferase activity was measured. As an instrument, Luminometer 20/20n (Turner Biosystems, Sunnyvale, Calif.) was used. For normalization, the cells were cotransfected with pSV40-β-galactosidase. For the collected supernatant, β-galactosidase activity was measured and the luciferase activity was revised, and the obtained values were plotted. At this time, a β-galactosidase enzyme analysis system (Promega, Madison, Wis.) was used, and analysis was performed using a DU530 spectrophotometer (Beckman Instruments, Palo Alto, Calif.).

CCCCCCCC/C=C\CCCCCCCC(=O)O [oleic acid]
binding between PPARγ2 and 14-3-3β ([1]; 200 μM oleic acid 72 hours, FIG. 8A): increased

14-3-3β: 14-3-3 isoform protein overexpressed by DNA transfection; increases the transcriptional activity of PPARγ2 by binding to PPARγ2
transcriptional activity of PPARγ2 (PPARγ2): increased
transcriptional activity of PPARγ2 (activity of the aP2 promoter) (PPARγ2): increased

14-3-3γ: 14-3-3 isoform protein overexpressed by DNA transfection; decreases the transcriptional activity of PPARγ2; proposed active ingredient
transcriptional activity of PPARγ2 (PPARγ2): reduced
transcriptional activity of PPARγ2 (activity of the aP2 promoter) (PPARγ2): decreased
binding between 14-3-3β and PPARγ2 ([1]; expression amount of 14-3-3γ increased (HA-14-3-3γ DNA 2 and 4 μg), FIG. 5A): reduced
